Patent US20110059082A1

Experiments:
[1] = molecular target: complement factor C1q (purified recombinant C1q) (UniProt P02745); test: flow cytometry, C1q binding to antibody-coated PBMCs, FITC anti-C1q; antibody 75.0 µg/ml
[2] = molecular target: complement factor C1q (purified recombinant C1q) (UniProt P02745); test: flow cytometry, C1q binding to antibody-coated PBMCs, FITC anti-C1q; antibody 9.4 µg/ml
[3] = molecular target: complement factor C1q (purified recombinant C1q) (UniProt P02745); test: flow cytometry, C1q binding to antibody-coated PBMCs, FITC anti-C1q; antibody 18.8 µg/ml
[4] = molecular target: complement factor C1q (purified recombinant C1q) (UniProt P02745); test: flow cytometry, C1q binding to antibody-coated PBMCs, FITC anti-C1q; antibody 1.2 µg/ml
[5] = molecular target: complement factor C1q (purified recombinant C1q) (UniProt P02745); test: flow cytometry, C1q binding to antibody-coated PBMCs, FITC anti-C1q; antibody 2.3 µg/ml
[6] = molecular target: complement factor C1q (purified recombinant C1q) (UniProt P02745); test: flow cytometry, C1q binding to antibody-coated PBMCs, FITC anti-C1q; antibody 4.7 µg/ml
[7] = molecular target: complement factor C1q (purified recombinant C1q) (UniProt P02745); test: flow cytometry, C1q binding to antibody-coated PBMCs, FITC anti-C1q; antibody 150 µg/ml
[8] = molecular target: complement factor C1q (purified recombinant C1q) (UniProt P02745); test: flow cytometry, C1q binding to antibody-coated PBMCs, FITC anti-C1q; antibody 37.5 µg/ml

Chain of complement factor C1q (purified recombinant C1q) (P02745 23-245, chain 1 of 3): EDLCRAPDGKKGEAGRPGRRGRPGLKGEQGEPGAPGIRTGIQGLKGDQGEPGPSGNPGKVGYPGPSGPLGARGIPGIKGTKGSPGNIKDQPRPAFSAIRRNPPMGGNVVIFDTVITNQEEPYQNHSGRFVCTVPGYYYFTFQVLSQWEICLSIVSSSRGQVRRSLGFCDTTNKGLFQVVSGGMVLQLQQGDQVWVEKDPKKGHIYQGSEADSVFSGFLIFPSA
Chain of complement factor C1q (purified recombinant C1q) (P02746 28-253, chain 2 of 3, further chain): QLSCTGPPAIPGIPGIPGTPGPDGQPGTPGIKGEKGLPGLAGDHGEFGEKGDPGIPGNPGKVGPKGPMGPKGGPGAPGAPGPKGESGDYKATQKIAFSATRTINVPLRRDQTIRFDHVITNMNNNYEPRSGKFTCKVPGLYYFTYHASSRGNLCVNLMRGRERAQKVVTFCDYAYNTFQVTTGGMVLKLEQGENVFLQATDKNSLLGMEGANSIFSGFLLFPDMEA
Chain of complement factor C1q (purified recombinant C1q) (P02747 29-245, chain 3 of 3, further chain): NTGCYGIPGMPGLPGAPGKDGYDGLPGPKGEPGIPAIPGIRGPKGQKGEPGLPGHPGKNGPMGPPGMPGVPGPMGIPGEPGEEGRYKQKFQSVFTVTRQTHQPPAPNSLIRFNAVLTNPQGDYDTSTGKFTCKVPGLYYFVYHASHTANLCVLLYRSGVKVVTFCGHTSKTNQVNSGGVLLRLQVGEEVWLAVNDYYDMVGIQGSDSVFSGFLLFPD

Substance | Mean fluorescence intensity [1] [MFI] | Mean fluorescence intensity [2] [MFI] | Mean fluorescence intensity [3] [MFI] | Mean fluorescence intensity [4] [MFI] | Mean fluorescence intensity [5] [MFI] | Mean fluorescence intensity [6] [MFI] | Mean fluorescence intensity [7] [MFI] | Mean fluorescence intensity [8] [MFI]
ATG (Tecelac) (antibody) | 766 | 541 | 672 | 302 | 371 | 491 | 782 | 732
humanized B-F5 H37L/L4M IgG1 (BT061) (antibody) | 200 | 210 | 217 | 193 | 199 | 198 | 199 | 205
